The target of assay [1] is T1, human NPR1 on HEK293/hNPR1.myc.DDK cells with 10 nM hANP (NPR1-ANP complex) (human, UniProt P01160 124-151).
T1 construct: also called NPR1-ANP Complex on the Cell Surface
T1 sequence: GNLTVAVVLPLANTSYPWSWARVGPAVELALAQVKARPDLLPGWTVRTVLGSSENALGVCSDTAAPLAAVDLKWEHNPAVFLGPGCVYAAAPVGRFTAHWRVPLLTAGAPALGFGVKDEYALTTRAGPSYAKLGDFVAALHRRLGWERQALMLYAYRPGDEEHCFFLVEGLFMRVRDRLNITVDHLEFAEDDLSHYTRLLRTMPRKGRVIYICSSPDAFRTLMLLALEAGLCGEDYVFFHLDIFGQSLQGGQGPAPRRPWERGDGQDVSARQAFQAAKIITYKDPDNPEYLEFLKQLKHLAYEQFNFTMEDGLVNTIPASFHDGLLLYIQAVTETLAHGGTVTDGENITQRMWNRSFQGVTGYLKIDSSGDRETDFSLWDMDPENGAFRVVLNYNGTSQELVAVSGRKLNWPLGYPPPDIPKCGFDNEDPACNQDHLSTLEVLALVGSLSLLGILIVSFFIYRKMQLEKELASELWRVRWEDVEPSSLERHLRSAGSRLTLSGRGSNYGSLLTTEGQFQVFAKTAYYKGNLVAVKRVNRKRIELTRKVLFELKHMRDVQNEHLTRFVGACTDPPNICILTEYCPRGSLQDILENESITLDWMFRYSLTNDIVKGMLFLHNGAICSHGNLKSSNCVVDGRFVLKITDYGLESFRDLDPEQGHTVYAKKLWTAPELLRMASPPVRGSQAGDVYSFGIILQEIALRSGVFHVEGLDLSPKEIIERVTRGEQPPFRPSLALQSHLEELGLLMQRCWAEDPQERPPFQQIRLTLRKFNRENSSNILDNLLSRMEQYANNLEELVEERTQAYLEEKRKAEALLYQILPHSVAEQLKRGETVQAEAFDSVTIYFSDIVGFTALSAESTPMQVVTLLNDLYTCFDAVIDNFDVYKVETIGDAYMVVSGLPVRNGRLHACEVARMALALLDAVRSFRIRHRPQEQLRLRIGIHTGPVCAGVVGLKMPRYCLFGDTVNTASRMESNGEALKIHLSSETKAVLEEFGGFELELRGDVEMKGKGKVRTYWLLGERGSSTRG
T1 sequence (peptide): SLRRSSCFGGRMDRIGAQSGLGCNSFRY
The assay can be described thus: ECL cell binding (MSD), +10 nM hANP. How it is done:
(§1) All cells were washed once with 1×PBS with Ca²⁺/Mg²⁺ and counted with a Cellometer™ Auto T4 cell counter (Nexcelom Bioscience). Approximately 2.0×10⁴ HEK293/hNPR1.myc.DDK or HEK293 cells were seeded separately onto 96-well carbon electrode plates (MULTI-ARRAY high bind plate, Meso Scale Discovery (MSD, Rockville, MD)) and incubated for 1 hour (h) at 37° C. Nonspecific binding sites were blocked by 2% BSA (w/v) in 1×PBS with Ca²⁺/Mg²⁺for 1 h at room temperature (RT). HEK293/hNPR1.myc. […] The plate-bound antibodies were detected with SULFO-TAG™-conjugated goat polyclonal anti-human IgG antibody specific for heavy and light chains (Jackson Immunoresearch, West Grove, PA) for 1 h, RT.
(§2) After washes, plates were developed with Read Buffer (MSD, Rockville, MD) according to manufacturer's recommended procedure and luminescent signals were recorded with a SECTOR Imager 600 (MSD, Rockville, MD). Luminescence intensity, measured in relative light units (RLU), was recorded to indicate the binding intensity of each antibody at the range of concentrations.
(§3) In addition, direct binding signals (RLU) were analyzed as a function of the antibody concentration and data were fitted with a sigmoidal (four-parameter logistic) dose-response model using R statistical package (open source).

Assay [2] deals with T2, human NPR1 on HEK293/hNPR1.myc.DDK cells (0 hANP) (human, UniProt P16066 33-1061).
T2 construct: Full-length receptor on engineered HEK293 cells, no ANP added; also called HEK293/hNPR1.myc.DKK
T2 sequence: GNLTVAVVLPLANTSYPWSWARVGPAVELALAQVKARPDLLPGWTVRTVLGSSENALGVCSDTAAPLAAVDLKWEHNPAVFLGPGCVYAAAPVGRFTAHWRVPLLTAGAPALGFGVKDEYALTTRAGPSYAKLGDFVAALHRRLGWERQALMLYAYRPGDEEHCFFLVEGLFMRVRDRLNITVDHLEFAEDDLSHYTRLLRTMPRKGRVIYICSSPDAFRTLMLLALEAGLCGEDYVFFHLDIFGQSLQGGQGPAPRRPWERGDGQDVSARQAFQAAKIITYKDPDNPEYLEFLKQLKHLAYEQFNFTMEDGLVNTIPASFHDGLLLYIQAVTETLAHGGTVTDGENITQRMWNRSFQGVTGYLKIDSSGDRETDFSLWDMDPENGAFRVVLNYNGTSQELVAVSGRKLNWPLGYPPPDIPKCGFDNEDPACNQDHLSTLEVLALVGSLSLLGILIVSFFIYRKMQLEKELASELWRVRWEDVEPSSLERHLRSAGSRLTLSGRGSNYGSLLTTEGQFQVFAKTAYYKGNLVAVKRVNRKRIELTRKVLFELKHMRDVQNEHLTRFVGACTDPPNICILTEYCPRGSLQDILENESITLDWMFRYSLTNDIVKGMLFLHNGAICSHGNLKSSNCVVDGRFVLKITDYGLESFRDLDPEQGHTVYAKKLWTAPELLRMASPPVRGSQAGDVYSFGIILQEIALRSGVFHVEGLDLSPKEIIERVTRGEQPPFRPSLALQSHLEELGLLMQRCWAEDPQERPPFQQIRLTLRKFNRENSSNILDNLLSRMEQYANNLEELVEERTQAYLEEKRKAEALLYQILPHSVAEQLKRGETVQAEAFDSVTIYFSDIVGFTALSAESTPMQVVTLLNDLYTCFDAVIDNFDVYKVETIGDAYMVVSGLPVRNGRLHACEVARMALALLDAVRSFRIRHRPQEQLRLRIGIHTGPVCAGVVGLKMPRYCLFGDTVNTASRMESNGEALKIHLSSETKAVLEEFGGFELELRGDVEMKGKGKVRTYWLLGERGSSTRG
As to the kind of experiment: ECL cell binding (MSD), 0 hANP. How it is done:
as §1, §2, §3

In assay [3] the target is T2, human NPR1 on HEK293/hNPR1.myc.DDK …. The assay can be described thus: cell-based or functional assay.
The target in assay [4] is T3, mNPR1-mFc (mouse).
T3 construct: also called mouse NPR1 extracellular domain expressed with a C-terminal mouse IgG2a
T3 chain: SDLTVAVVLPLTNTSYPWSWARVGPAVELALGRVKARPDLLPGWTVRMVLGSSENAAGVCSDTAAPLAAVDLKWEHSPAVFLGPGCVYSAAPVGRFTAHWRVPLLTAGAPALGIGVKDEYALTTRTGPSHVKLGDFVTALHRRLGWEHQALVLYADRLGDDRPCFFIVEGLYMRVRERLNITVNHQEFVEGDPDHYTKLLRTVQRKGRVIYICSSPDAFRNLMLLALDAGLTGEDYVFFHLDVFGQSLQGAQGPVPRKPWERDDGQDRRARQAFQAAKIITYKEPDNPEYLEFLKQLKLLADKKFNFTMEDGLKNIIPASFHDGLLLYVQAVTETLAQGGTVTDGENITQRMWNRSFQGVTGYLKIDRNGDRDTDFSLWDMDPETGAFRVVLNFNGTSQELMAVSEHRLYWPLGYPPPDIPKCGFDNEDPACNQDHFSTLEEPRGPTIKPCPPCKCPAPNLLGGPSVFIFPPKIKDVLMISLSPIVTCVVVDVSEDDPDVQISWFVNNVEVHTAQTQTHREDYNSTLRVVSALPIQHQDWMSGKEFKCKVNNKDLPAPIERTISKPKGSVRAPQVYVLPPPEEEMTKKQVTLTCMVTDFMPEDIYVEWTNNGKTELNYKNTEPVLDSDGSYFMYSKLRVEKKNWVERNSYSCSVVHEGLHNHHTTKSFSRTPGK
As to the kind of experiment: SPR Biacore, mAb captured by anti-human Fc, 37C. As for the experimental part: (§4) Equilibrium dissociation constant (KD) for different NPR1 reagents binding to purified anti-NPR1 monoclonal antibodies (mAbs) were determined using a real-time surface plasmon resonance based Biacore 4000 biosensor. All binding studies were performed in 10 mM HEPES, 150 mM NaCl, 3 mM EDTA, and 0.05% v/v Surfactant Tween-20, pH 7.4 (HBS-ET) running buffer at 25° C. and 37° C. The Biacore CM5 sensor chip surface was first derivatized by amine coupling with either mouse anti-human Fc specific mAb (GE Healthcare, #BR100839) or goat anti-human Fcy specific polyclonal antibody (Jackson ImmunoResearch Laboratories, #BR-1008-39) to capture anti-NPR1 mAbs.
On the technique in general: In SPR one partner is held on a chip, and binding of the other changes the refractive index at the surface.

The next assay addresses T4, mfNPR1-mFc:hBNP complex (monkey; human, UniProt P16860 103-134).
T4 construct: Receptor-Fc pre-complexed with 10-fold hBNP
As to the kind of experiment: SPR Biacore, mAb captured by anti-human Fc, 37C. How it is done: as §4

For assay [5], the target named is T3, mNPR1-mFc. As to the kind of experiment: SPR Biacore, mAb captured by anti-human Fc, 25C. How it is done:
as §4

Data on three molecules can be found in patent US20240309103A1 (Regeneron, published 2024).

B1: mAb25498 (antibody, human IgG4, V domains shown)
VH: QVQLVESGGGVVQPGRSLRLSCVASGFTFSSYGMVWVRQTPGKGLEWVAVIWHDGTNNYYADSVKGRFTISRDNSKNTLYLQMNSLRAEDTAVYYCAREPWLVRGYYYYAMDVWGQGTTVTVSS
VL: not shown
On to B1, for which, in assay [1], the EC50 (usually the concentration that produces a half-maximal response) is 1.8 nM and the “Ratio at 3.7 nM Ab concentration of Cell Binding Signal (RLU) to HEK293/hNPR1.myc.DKK relative to parental HEK293” value is 49 ratio. Further, in assay [2], the EC50 was 4.6 nM and the “Ratio at 3.7 nM Ab concentration of Cell Binding Signal (RLU) to HEK293/hNPR1.myc.DKK relative to parental HEK293” value was 41 ratio. In assay [3], the “% Activation (vs ANP max), Expt 1” value was 67.7% and the “EC50 (nM), calcium flux, Expt 1” value was found to be 335 nM. Also, in the assay with mNPR1-mFc [4], the “100 nM Ag Bound (RU)” value was 0 RU and the binding result is “no binding (tested: 100 nM)”. In addition, in the assay with mfNPR1-mFc:hBNP complex, the “100 nM Ag Bound (RU)” value stood at 113 RU; the Kd (usually a measure of binding affinity in units of concentration) stood at 8.91 nM; the koff – broadly, a measure of how fast the partners let go of each other – came to 0.000464 s⁻¹; the kon (in general, the second-order rate constant of association) is 52100 M⁻¹ s⁻¹. In addition, the t½ (usually the time in which the quantity being followed falls by half) with mfNPR1-mFc:hBNP complex turned out to be 24.9 min. In the assay with mNPR1-mFc [5], the “100 nM Ag Bound (RU)” value was 0 RU.

B2: mAb25497 (antibody, human IgG4, V domains shown)
VH: QVQLVQSGAEVKEPGASVKVSCKASGYTFTDYYIHWVRQAPGQGLEWMGWINLNSGGKNHAQKFQGRVTVTSDTSINTAYIELGRLRGDDTAVYYCSRGGGSHYYYYYHGMDVWGQGTTVTVSS
VL: DIQMTQSPSSLSASVGDRITITCRASHSIDSYLNWYQQKPGKAPKLLIYPASTLQSGVPSRFSGSGSGTDFTLTISSLQPEDSAIYYCQQSYSTPLTFGGGTKVEIK
For B2, in assay [1], a half-maximal effect (EC50) was put at 0.87 nM and the “Ratio at 3.7 nM Ab concentration of Cell Binding Signal (RLU) to HEK293/hNPR1.myc.DKK relative to parental HEK293” value came out at 87 ratio. Further, in assay [2], it took 1.5 nM to reach a half-maximal effect (EC50) and the “Ratio at 3.7 nM Ab concentration of Cell Binding Signal (RLU) to HEK293/hNPR1.myc.DKK relative to parental HEK293” value is 50 ratio. Besides, in assay [3], the “% Activation (vs ANP max), Expt 1” value amounted to 71.1%; the “% Activation (vs. ANP max), Expt II” value stood at 103%; the “EC50 (nM), calcium flux, Expt 1” value turned out to be 72.6 nM; the “EC50 (nM), calcium flux, Expt II” value was 56.4 nM. In the assay with mNPR1-mFc [4], the “100 nM Ag Bound (RU)” value was found to be 1 RU and the binding result is listed as “no binding (tested: 100 nM)”. Moreover, in the assay with mfNPR1-mFc:hBNP complex, the “100 nM Ag Bound (RU)” value stood at 100 RU, the Kd turned out to be 2.9 nM, the koff turned out to be 0.000166 s⁻¹ and the kon was 57400 M⁻¹ s⁻¹. For the same molecule, the t½ in the assay with mfNPR1-mFc:hBNP complex was found to be 69.5 min. Further, the “100 nM Ag Bound (RU)” value with mNPR1-mFc [5] stood at 1 RU.

B3: mAb25479 (antibody, human IgG4, V domains shown)
VH: QVQLVQSGAEVKKPGASVKVSCKASGYTFTGYYIHWVRQAPGQGLEWMGWINPNSIGTNYAQKFQGRVTLTRDTSISTAYMELSSLRSDDTAVYYCARGGSSSYYYYYYGMDVWGQGTTVTVSS
VL: DIQMTQSPSSLSASVGDRVTITCRASQSIDNYLNWYQQKPGKAPKLLIYVASSLQSGVPSRFSGSGSGTDFTLTISSLQPEDFATYYCQQSYSTPLTFGGGTKVEIK
Turning to B3, in assay [1], a half-maximal response (EC50) required 1.2 nM and the “Ratio at 3.7 nM Ab concentration of Cell Binding Signal (RLU) to HEK293/hNPR1.myc.DKK relative to parental HEK293” value came to 51 ratio. Further, in assay [2], a half-maximal response (EC50) required 1.7 nM and the “Ratio at 3.7 nM Ab concentration of Cell Binding Signal (RLU) to HEK293/hNPR1.myc.DKK relative to parental HEK293” value worked out at 30 ratio. In addition, in assay [3], the “% Activation (vs ANP max), Expt 1” value was found to be 66.7%; the “% Activation (vs. ANP max), Expt II” value was found to be 82.8%; the “EC50 (nM), calcium flux, Expt 1” value was found to be 174 nM; the “EC50 (nM), calcium flux, Expt II” value was 102 nM. In the assay with mNPR1-mFc [4], the “100 nM Ag Bound (RU)” value is 2 RU. In the assay with mfNPR1-mFc:hBNP complex, the “100 nM Ag Bound (RU)” value was 135 RU, binding was put at a Kd of 5.53 nM, the koff turned out to be 0.000293 s⁻¹ and the kon amounted to 53000 M⁻¹ s⁻¹. Also, the t½ with mfNPR1-mFc:hBNP complex is 39.4 min. In the assay with mNPR1-mFc [5], the “100 nM Ag Bound (RU)” value was -1 RU.
